The source of these data is patent US20090175860A1 (Novartis, published 2009).

One assay deals with T1, recombinant human c-Met (human, UniProt P08581 25-932, limits assumed).
T1 construct: Soluble recombinant protein: immobilised on the CM5 chip in Biacore, in solution in the equilibrium titration; The precursor is cleaved into disulfide-linked alpha and beta subunits; also called Hepatocyte Growth Factor Receptor
Nature of the assay: SPR (BIAcore), c-Met amine-coupled on CM5 chip, Fab 16-500 nM as analyte. As for the experimental part:
Using these clones, kinetic SPR analysis is performed on a CM5 chip (Biacore, Sweden) which had been coated with a density of ˜400 RU of either recombinant human c-Met, in 10 mM Na-acetate pH 4.5 using standard EDC-NHS amine coupling chemistry. […] PBS (136 mM NaCl, 2.7 mM KCl, 10 mM Na2HPO4 , 1.76 mM KH2PO4 pH 7.4) is used as the running buffer. The Fab preparations are applied in concentration series of 16-500 nM at a flow rate of 20 μl/min. Association phase is set to 60 s and dissociation phase to 120 s.
For orientation: SPR reads the build-up and loss of mass on a sensor chip optically.

Assay [1] deals with T2, full length human c-Met on cells (human, UniProt P08581 25-1390).
T2 construct: whole, on cells; NCI-H441 for migration; A549 for autophosphorylation; also called human c-Met GTL-16; c-Met on NCI-H441 cells
The assay is described as follows: flow cytometry, Fab titration on GTL-16 cells. As to the method: (§1) In order to further characterize the anti-c-Met antibodies, the affinity to full length human and cynomolgus c-Met is determined. GTL16, CHO cells overexpressing cynomolgus c-Met or rhesus 4 MBr-5 cells are washed, trypsinised, and suspended in PBS containing 3% FCS (3% FCS/PBS) at 4-C. 2-5×10⁵ cells/sample are resuspended in 140 μl of 3% FCS//PBS containing 5 μg/ml of purified anti-cMet Fabs or serial dilutions thereof. As a positive control 5 μg/ml of DO24 (mouse IgG2a), anti-human c-Met is used. The cells are incubated for 30-60 minutes at 4° C. before being pelleted by centrifugation for 2 min at 2000 rpm (716 g) at 4° C. and washed in 200 μl of in chilled 3% FCS/PBS. The cells are again pelleted by centrifugation and the PBS gently removed. Cells are resuspended in 100 μl of goat anti-human IgG (H+L) PE conjugated (Jackson Cat No. 109-116-088) diluted 1:200 in 3% FCS/0.02% NaN₃/PBS; For the positive control goat anti-mouse IgG (H+L)-PE conjugated (Jackson Cat No. 115-116-146) diluted 1:200 in 3% FCS/PBS is used. Samples are incubated in the dark for 30-60 min at 4° C. Following centrifugation and washing in 200 μl of 3% FCS/0.02%/NaN₃/PBS the cells are resuspended in 100 μl of 3% FCS/PBS and assayed using FACS-array or FACS-Calibur.

For assay [2], the target named is T3, rhesus c-Met on 4MBr-5 cells (rhesus).
T3 construct: whole, on cells
Nature of the assay: flow cytometry, Fab titration on rhesus 4MBr-5 cells. As to the method: as §1
In general terms: Flow cytometry measures light scatter and fluorescence of single cells or particles in a stream.

For assay [3], the target named is T2, full length human c-Met on cells. Nature of the assay: cell-based or functional assay.
Assay [4] concerns the target T3, rhesus c-Met on 4MBr-5 cells. Nature of the assay: cell-based or functional assay.
The target in assay [5] is T2, full length human c-Met on cells. Nature of the assay: cell-based or functional assay. The source holds these as a separate data set.
In assay [6] the target is T3, rhesus c-Met on 4MBr-5 cells. The assay is described as follows: cell-based or functional assay. This is another data set of the same source.
Assay [7] deals with T2, full length human c-Met on cells. The assay is described as follows: cell-based or functional assay. The source holds these as a separate data set.
Assay [8] has the same target. The assay is described as follows: cell-based or functional assay. This is another data set of the same source.
Assay [9] deals with T3, rhesus c-Met on 4MBr-5 cells. Nature of the assay: cell-based or functional assay. The source holds these as a separate data set.

T2 sequence (P08581 25-1390): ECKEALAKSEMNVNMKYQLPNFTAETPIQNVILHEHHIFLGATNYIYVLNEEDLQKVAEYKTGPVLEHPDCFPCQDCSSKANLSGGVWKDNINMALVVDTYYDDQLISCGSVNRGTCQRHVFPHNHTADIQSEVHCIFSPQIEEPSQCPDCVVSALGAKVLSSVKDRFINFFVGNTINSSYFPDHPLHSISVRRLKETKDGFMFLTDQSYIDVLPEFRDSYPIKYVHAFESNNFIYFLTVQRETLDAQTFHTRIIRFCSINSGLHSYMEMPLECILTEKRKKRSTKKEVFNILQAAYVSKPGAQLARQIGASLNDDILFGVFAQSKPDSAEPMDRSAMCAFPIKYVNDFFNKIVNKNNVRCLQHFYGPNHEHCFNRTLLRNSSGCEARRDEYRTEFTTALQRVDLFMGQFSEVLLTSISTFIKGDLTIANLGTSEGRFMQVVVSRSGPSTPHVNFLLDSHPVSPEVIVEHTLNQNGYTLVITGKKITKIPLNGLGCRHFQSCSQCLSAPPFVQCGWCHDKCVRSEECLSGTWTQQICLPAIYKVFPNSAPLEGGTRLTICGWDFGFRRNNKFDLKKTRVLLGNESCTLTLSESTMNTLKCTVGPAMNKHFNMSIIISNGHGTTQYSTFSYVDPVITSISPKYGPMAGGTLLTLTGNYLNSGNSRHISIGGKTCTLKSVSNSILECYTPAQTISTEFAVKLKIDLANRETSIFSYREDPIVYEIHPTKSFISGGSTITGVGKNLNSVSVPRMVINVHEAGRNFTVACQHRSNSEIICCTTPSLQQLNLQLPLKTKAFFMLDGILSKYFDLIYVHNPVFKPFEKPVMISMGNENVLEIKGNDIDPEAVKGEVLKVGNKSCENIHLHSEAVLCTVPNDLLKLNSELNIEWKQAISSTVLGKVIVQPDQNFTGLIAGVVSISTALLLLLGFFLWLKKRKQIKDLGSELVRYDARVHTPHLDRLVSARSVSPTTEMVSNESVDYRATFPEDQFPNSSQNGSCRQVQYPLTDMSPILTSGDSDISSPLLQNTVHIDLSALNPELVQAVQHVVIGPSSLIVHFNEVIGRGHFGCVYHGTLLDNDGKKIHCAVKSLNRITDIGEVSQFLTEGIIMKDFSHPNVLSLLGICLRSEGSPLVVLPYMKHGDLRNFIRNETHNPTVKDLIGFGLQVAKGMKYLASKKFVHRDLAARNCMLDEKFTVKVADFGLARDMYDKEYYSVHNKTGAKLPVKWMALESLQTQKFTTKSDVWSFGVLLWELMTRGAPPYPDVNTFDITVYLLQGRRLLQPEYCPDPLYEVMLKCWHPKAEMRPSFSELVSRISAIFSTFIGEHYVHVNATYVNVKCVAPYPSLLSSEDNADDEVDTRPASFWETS
T1 sequence (P08581 25-932 limits assumed): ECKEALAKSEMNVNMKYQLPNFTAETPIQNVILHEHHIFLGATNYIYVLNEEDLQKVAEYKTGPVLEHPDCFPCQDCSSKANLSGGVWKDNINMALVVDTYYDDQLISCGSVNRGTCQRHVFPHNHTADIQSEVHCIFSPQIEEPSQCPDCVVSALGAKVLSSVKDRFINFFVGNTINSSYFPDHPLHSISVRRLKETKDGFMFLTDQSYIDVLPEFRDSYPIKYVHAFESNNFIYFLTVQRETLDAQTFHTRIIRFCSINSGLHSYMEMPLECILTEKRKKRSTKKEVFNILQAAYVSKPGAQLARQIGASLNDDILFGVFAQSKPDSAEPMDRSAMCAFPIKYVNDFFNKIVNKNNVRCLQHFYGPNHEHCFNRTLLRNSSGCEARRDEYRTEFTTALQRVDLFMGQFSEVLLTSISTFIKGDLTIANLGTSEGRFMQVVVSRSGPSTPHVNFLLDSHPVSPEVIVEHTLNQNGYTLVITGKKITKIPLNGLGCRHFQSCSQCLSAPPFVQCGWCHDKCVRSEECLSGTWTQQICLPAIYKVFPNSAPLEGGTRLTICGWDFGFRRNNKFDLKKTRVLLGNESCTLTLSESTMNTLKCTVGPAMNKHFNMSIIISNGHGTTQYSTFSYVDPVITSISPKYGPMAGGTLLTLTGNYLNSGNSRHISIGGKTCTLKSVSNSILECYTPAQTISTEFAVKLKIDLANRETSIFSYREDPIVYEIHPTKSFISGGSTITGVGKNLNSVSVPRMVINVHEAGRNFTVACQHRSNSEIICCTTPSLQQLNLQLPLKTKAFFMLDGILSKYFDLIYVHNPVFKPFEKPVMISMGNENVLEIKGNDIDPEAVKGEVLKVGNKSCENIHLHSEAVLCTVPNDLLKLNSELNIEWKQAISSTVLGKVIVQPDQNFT

B1: 04690 (parental anti-cMet Fab antibody) (Fab, V domains shown)
VH: QVQLQQSGPGLVKPSQTLSLTCAISGDSVSSNSAAWGWIRQSPGRGLEWLGRIYYRSKWVNDYAVSVKSRITINPDTSKNQFSLQLNSVTPEDTAVYYCARQGAVYPGPYGFDVWGQGTLVTVSS
VL: DIELTQPPSVSVAPGQTARISCSGDKLGSYFVYWYQQKPGQAPVLVIYDDDNRPSGIPERFSGSNSGNTATLTISGTQAEDEADYYCQSFGISNFYVFGGGTKLTVLG
notes: carries two C-terminal tags (FLAG and 6xHis)
For orientation: Kd means the constant that tells how readily two partners part at equilibrium. Regarding B1, the Kd with recombinant human c-Met worked out at 66 nM; in [1], 1.1 nM; in assay [2] it was 0.1 nM.

B2: 04536 in IgG format (antibody, V domains shown)
VH: QVQLVQSGAEVKKPGASVKVSCKASGYTFTGYYMNWVRQAPGQGLEWMGIINPWTGNTNYAQKFQGRVTMTRDTSISTAYMELSSLRSEDTAVYYCARDPGFFYYTPSDLWGQGTLVTVSS
VL: DIELTQPPSVSVAPGQTARISCSGDSIGNKYVHWYQQKPGQAPVLVIYADSDRPSGIPERFSGSNSGNTATLTISGTQAEDEADYYCQAYDSSMLRVFGGGTKLTVLG
B2: the “EC50 [nM] NCI-H441 Migration IgG” value in assay [3] is 0.61 nM. In addition, the “EC50 [nM] 4Mbr-5 Proliferation IgG” value in assay [4] worked out at 4 nM. In [5], the “EC50 [nM] Inhibition of HGF driven migration NCI-H441” value is 0.61 nM. The “EC50 [nM] Inhibition of HGF driven proliferation 4MBr-5” value in assay [6] came out at 4 nM.

B3: 05091 in IgG format (antibody, V domains shown)
VH: B2 VH
VL: DIELTQPPSVSVAPGQTARISCSGDSIGNKYVHWYQQKPGQAPVLVIYADSDRPSGIPERFSGSNSGNTATLTISGTQAEDEADYYCQSYAHYHDIWVFGGGTKLTVLG
Consider B3, for which the “EC50 [nM] Inhibition of HGF driven migration NCI-H441 in 1% serum” value in [7] came out at 0.61 nM. Besides, the “EC50 [nM] Inhibition of HGF stimulated c-Met autophosphorylation in A549” value in assay [8] is 0.193 nM. For the same molecule, the “EC50 [nM] Inhibition of HGF driven proliferation 4MBr-5 in 10% serum” value in [9] was found to be 1.3 nM.

B4: 04541 in IgG format (antibody, V domains shown)
VH: QVQLQESGPGLVKPGETLSLTCTVSGGSISSSSYYWNWIRQAPGKGLEWIGEIYFGWTYYNPSLKGRVTISVDTSKNQFSLKLSSVTAEDTAVYYCARGYEFHGYTTFDYWGQGTLVTVSS
VL: DIELTQPPSVSVAPGQTARISCSGDNIGSYYVYWYQQKPGQAPVLVIYDDNDRPSGIPERFSGSNSGNTATLTISGTQAEDEADYYCQSYDFPSIVFGGGTKLTVLG
In the case of B4, the “EC50 [nM] NCI-H441 Migration IgG” value in assay [3] amounted to 0.27 nM. Besides, in assay [4], the “EC50 [nM] 4Mbr-5 Proliferation IgG” value amounted to 200 nM. In assay [5], the “EC50 [nM] Inhibition of HGF driven migration NCI-H441” value stood at 0.27 nM. Moreover, in [6], the “EC50 [nM] Inhibition of HGF driven proliferation 4MBr-5” value was found to be 200 nM.

B5: 04537 in IgG format (antibody, V domains shown)
VH: QVQLVQSGAEVKKPGESLKISCKGSGYSFSNYWIGWVRQMPGKGLEWMGFIFPDTSYTRYSPSFQGQVTISADKSISTAYLQWSSLKASDTAMYYCARVKLITDYWGQGTLVTVSS
VL: DIELTQPPSVSVAPGQTARISCSGDSLRSYFVSWYQQKPGQAPVLVIYDDDDRPSGIPERFSGSNSGNTATLTISGTQAEDEADYYCASWDTLSDVEVFGGGTKLTVLG
Regarding B5, the “EC50 [nM] NCI-H441 Migration IgG” value in assay [3] was 0.14 nM. Also, in assay [4], the “EC50 [nM] 4Mbr-5 Proliferation IgG” value came to 150 nM. The “EC50 [nM] Inhibition of HGF driven migration NCI-H441” value in assay [5] was determined as 0.14 nM. For the same molecule, in assay [6], the “EC50 [nM] Inhibition of HGF driven proliferation 4MBr-5” value is 150 nM.

B6: 04687 in IgG format (antibody, V domains shown)
VH: QVQLVQSGAEVKKPGSSVKVSCKASGGTFSSYAISWVRQAPGQGLEWMGGIDPFGTANYAQKFQGRVTITADESTSTAYMELSSLRSEDTAVYYCARVYQDVWGQGTLVTVSS
VL: DIVMTQSPDSLAVSLGERATINCRSSQSILYGINNNFLGWYQQKPGQPPKLLIYWASTRESGVPDRFSGSGSGTDFTLTISSLQAEDVAVYYCQQYYNHPHTFGQGTKVEIKR
In the case of B6, the “EC50 [nM] NCI-H441 Migration IgG” value in assay [3] came out at 1.68 nM. In addition, the “EC50 [nM] 4Mbr-5 Proliferation IgG” value in assay [4] stood at 6 nM. In addition, the “EC50 [nM] Inhibition of HGF driven migration NCI-H441” value in assay [5] is 1.68 nM. The “EC50 [nM] Inhibition of HGF driven proliferation 4MBr-5” value in [6] came to 6 nM.
